Broadly, the Kd is a measure of binding affinity in units of concentration.

For one data set, the target named is T1, GST-FUS3-B3 (Arabidopsis thaliana, UniProt Q9LW31).
T1 chain: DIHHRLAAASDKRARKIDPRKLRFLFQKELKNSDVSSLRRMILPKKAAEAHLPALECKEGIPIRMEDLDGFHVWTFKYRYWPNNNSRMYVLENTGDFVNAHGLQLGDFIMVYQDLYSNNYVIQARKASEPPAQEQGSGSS
Briefly: EMSA; BLI: Octet Qke, 1x Kinetics Buffer (ForteBio), pH 7.0, 0.05 uM biotinylated probe on streptavidin, temperature not stated; EMSA: MgCl2, 0.05% NP-40, 0.5 nM probe, 15 ul, room temperature 20 min, 6% gel in 0.5x TBE (rest of buffer not in material). To be noted: protein: recombinant; tags: GST (N-terminal, pGEX-2T); label: 5' biotin on strand 1 (strand 2 oligo also named 5-Biotin-probe); blunt. A general note: In EMSA bound probe runs differently from free probe, usually more slowly.

The next data set concerns the target T2, GST-LEC2-B3 (Arabidopsis thaliana, UniProt Q1PFR7).
T2 chain: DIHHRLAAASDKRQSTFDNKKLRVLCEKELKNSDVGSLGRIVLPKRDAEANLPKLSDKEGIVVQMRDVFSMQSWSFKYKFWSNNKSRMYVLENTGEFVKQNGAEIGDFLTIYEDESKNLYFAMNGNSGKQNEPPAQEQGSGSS
The data set is described as above. The note with it: protein: recombinant; tags: GST (N-terminal, pGEX-2T); label: 5' biotin on strand 1 (strand 2 oligo also named 5-Biotin-probe); blunt.

B1: Sph2 probe (dsDNA)
DNA 1: CACGGATCATGCATGGACGACACGGATCATGCATGGACGACACG
DNA 2: CGTGTCGTCCATGCATGATCCGTGTCGTCCATGCATGATCCGTG
B1: the values for the Kd with GST-FUS3-B3 and in the data set with GST-LEC2-B3 were 1.28 nM and 198 nM, respectively.

(Values after PMC8136769, “Structural variation affecting DNA backbone interactions underlies adaptation of B3 DNA binding domains to constraints imposed by protein architecture”.)
